Results from PMC4004102.

What was measured:
[1] = biological target: AgrC-I (wild type) dimer embedded in nanodiscs (Staphylococcus aureus); assay: SEC-MALS
[2] = biological target: FAM-AIP-I (fluorescein-labeled AIP-I analog) (Staphylococcus aureus); assay: fluorescence polarisation

B1: AgrC-I (wild type) dimer embedded in nanodiscs (receptor)
chain: MELLNSYNFVLFVLTQMILMFTIPAIISGIKYSKLDYFFIIVISTLSLFLFKMFDSASLIILTSFIIIMYFVKIKWYSILLIMTSQIILYCANYMYIVIYAYITKISDSIFVIFPSFFVVYVTISILFSYIINRVLKKISTPYLILNKGFLIVISTILLLTFSLFFFYSQINSDEAKVIRQYSFIFIGITIFLSILTFVISQFLLKEMKYKRNQEEIETYYEYTLKIEAINNEMRKFRHDYVNILTTLSEFIREDDMPGLRDYFNKNIVPMKDNLQMNAIKLNGIENLKVREIKGLITAKILRAQEMNIPISIEIPDEVSSINLNMIDLSRSIGIILDNAIEASTEIDDPIIRVAFIESENSVTFIVMNKCADDIPRIHELFQESFSTKGEGRGLGLSTLKEIADNADNVLLDTIIENGFFIQKVEIINN
modifications: not checked
- stoichiometry N [1]: 2
- Kd [2]: 122 nM
